Source: patent CN111793131A

Assays:
[1] = biological target: PF4全抗原 (血小板因子4, platelet factor 4) (Homo sapiens (Human)) (UniProt P02776); test: chemiluminescent ELISA, antigen coated at 2ug/ml, 2ul antibody, HRP goat anti-mouse IgG, luminol (blank 3280)
[2] = biological target: PF4全抗原 (血小板因子4, platelet factor 4) (Homo sapiens (Human)) (UniProt P02776); test: chemiluminescent ELISA, antigen coated at 2ug/ml, 10ul antibody, HRP goat anti-mouse IgG, luminol (blank 3280)
[3] = biological target: PF4全抗原 (血小板因子4, platelet factor 4) (Homo sapiens (Human)) (UniProt P02776); test: chemiluminescent ELISA, antigen coated at 2ug/ml, 50ul antibody, HRP goat anti-mouse IgG, luminol (blank 3280)

UniProt P02776, sequence (P02776 32-101 limits assumed): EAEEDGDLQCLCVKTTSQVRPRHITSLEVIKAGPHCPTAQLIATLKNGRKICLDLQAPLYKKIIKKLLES

发光值 [1]: 63000
发光值 [2]: 256000
发光值 [3]: 994000
B1: 单克隆抗体AntiPF4_N (杂交瘤来源, 实施例1) (antibody, V domains shown)
VH: EVKLEESGGGLVQPGGSMKLSCVASGFTFSNYWMNWVRQSPEKGLEWVAEIRLKSNNYATHYAESVKGRFTISRDDSKSSVYLQMNNLRAEDTGIYYCTGYDFDYWGQGTTLTVSS
VL: DVVMTQTPLSLPVSLGDQASISCRSSQSLVHNYGNTFLHWYLQKPGQSPKLLIYSTSNLFSGVPDRFSGSGSGTDFTLKISRVEAEDLGVYFCSQSTHVPPTFGGGTKLEI
